How the values were obtained:
[1] = target: human oxytocin receptor (human) (UniProt P30559); assay: cell-based or functional assay
[2] = target: human vasopressin V1a receptor (human) (UniProt P37288); assay: cell-based or functional assay
[3] = target: human oxytocin receptor (human) (UniProt P30559); assay: radioligand displacement (3H-OT), SPA beads, COS-1 membranes
[4] = target: human vasopressin V1b receptor (human) (UniProt P47901); assay: cell-based or functional assay
[5] = target: human vasopressin V2 receptor (human) (UniProt P30518); assay: radioligand displacement (3H-AVP), filtration, HEK293 membranes
[6] = target: human vasopressin V1b receptor (human) (UniProt P47901); assay: radioligand displacement (3H-AVP), WGA SPA beads, COS-1 membranes
[7] = target: human vasopressin V1a receptor (human) (UniProt P37288); assay: radioligand displacement (125I-V1a linear antagonist), SPA beads, COS-1 membranes

Sequence of human vasopressin V1b receptor (human) (P47901 whole entry): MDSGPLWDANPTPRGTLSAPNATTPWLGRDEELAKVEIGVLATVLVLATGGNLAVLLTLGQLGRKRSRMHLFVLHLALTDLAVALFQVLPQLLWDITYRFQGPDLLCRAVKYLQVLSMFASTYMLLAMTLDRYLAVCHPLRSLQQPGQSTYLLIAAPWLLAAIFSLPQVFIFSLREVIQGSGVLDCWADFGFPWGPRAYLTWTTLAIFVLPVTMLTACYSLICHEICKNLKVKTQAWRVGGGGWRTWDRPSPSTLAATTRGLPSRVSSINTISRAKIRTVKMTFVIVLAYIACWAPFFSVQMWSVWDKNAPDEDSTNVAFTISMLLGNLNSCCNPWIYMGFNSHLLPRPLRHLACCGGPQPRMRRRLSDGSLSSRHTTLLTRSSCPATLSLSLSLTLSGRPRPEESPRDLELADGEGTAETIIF
Sequence of human oxytocin receptor (human) (P30559 whole entry): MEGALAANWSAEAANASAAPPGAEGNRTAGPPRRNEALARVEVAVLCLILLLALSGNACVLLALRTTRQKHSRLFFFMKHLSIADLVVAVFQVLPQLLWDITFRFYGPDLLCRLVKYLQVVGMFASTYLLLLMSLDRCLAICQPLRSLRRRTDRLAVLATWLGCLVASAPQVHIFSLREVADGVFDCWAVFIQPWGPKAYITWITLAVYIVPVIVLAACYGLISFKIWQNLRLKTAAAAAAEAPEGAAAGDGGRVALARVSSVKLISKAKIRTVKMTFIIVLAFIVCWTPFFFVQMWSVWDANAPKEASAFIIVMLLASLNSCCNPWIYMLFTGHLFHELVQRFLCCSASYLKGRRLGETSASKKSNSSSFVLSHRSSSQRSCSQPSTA
Sequence of human vasopressin V1a receptor (human) (P37288 whole entry): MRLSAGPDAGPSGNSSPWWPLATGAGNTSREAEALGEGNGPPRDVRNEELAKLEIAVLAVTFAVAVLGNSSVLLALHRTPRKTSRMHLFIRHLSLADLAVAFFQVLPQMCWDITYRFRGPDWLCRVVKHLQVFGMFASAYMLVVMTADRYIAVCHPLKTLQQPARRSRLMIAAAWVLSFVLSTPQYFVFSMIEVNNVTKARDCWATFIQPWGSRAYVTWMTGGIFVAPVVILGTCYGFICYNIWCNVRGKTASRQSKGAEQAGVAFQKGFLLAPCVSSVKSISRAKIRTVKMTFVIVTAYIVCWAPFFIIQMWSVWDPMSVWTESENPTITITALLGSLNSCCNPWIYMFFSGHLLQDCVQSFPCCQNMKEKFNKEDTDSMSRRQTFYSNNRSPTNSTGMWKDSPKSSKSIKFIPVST

| Substance | EC50, FLIPR calcium assay [1] | EC50, IP-One HTRF assay [1] | Emax, FLIPR calcium assay [1] | Emax, IP-One HTRF assay [1] | EC50, FLIPR calcium assay [2] | Emax, FLIPR calcium assay [2] | IC50 [3] | EC50, FLIPR calcium assay [4] | EC50, IP-One HTRF assay [4] | Emax, FLIPR calcium assay [4] | Emax, IP-One HTRF assay [2] | EC50, IP-One HTRF assay [2] | Emax, IP-One HTRF assay [4] | IC50 [5] | IC50 [6] | IC50 [7] |
| --- | --- | --- | --- | --- | --- | --- | --- | --- | --- | --- | --- | --- | --- | --- | --- | --- |
| [C1,6U]-OT-OH (peptide) |  |  |  |  |  |  |  | 2460 nM | > 100000 nM | 63% |  |  |  |  |  |  |
| [C1,6U]-OT (peptide) | 1.39 nM | 18 nM | 86% | 94% | 35.9 nM | 100% | 538 nM | 7.75 nM | 510 nM | 82% | 70% | 269 nM | 103% | 3350 nM | 1760 nM | 127 nM |

Other lines, results leading:

| EC50, FLIPR calcium assay [1] | EC50, IP-One HTRF assay [1] | Emax, FLIPR calcium assay [1] | Emax, IP-One HTRF assay [1] | EC50, FLIPR calcium assay [2] | Emax, FLIPR calcium assay [2] | IC50 [3] | EC50, FLIPR calcium assay [4] | EC50, IP-One HTRF assay [4] | Emax, FLIPR calcium assay [4] | Emax, IP-One HTRF assay [2] | EC50, IP-One HTRF assay [2] | Emax, IP-One HTRF assay [4] | IC50 [5] | IC50 [6] | IC50 [7] | Substance |
| --- | --- | --- | --- | --- | --- | --- | --- | --- | --- | --- | --- | --- | --- | --- | --- | --- |
| 0.39 nM | 0.71 nM | 89% | 100% | 46.1 nM | 54% | 1.7 nM |  |  |  |  |  |  |  |  |  | dOT (peptide) |
|  |  |  | 64% |  |  |  |  |  |  | 75% |  |  |  |  |  | [CH2-S]-OT (peptide) |
| 11.3 nM | 13.3 nM | 86% | 98% | 4280 nM |  | 8 nM |  |  |  |  | > 10000 nM |  |  |  |  | [Te-Te]-Oxytocin (peptide) |

From patent US20130130985A1
